Results on 35 molecules are retold here after patent US20230406951A1 (Pfizer, published 2023).

Changes are numbered by the printed parent chain.

The assay deals with T1, human TNFR2 (human, UniProt P20333 23-461).
T1 construct: expressed on the surface of CHO cells; also called HuTNFR2; TNFRSF1B
T1 sequence: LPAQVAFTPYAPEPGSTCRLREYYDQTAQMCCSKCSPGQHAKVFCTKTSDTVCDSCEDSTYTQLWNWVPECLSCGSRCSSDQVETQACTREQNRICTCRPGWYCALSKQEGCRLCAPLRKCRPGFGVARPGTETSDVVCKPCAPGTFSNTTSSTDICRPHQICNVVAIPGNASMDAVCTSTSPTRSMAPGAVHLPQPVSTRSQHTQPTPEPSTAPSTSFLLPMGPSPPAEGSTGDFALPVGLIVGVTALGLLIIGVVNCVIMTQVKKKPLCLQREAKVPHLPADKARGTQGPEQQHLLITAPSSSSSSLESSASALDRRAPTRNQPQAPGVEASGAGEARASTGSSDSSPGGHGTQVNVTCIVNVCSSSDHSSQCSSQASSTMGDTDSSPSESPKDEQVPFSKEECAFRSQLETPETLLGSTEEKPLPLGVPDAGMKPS
The experiment in a line: binding to human TNFR2 CHO cells.

B1: IgG 1918 (antibody, name in Kabat numbering, V domains shown)
VH: QVQLVQSGAEVKKPGASVKVSCKVSGFSFPSSGVDWVRQAPGQGLEWLGVTRGEGSTHYNQKFQGRVTITKDTSKSTVYMELSSLRSEDTAVYYCASGEWDEGFVYWGQGTLVTVSS
VL: DIQLTQSPSFLSASVGDRVTITCKASQNVGTAVAWYQQKPGKAPKLLIYAASTLQSGVPSRFSGSGSGTEFTLTISSLQPEDFATYYCQQYNSYPFGGGTKVEIKR
notes: IgG
Consider B1, for which the binding result was “no binding”.

B2: IgG 1921 (antibody, name in Kabat numbering, V domains shown)
VH: B1 VH with R52H, E54S
VL: B1 VL
notes: IgG
B2: the binding result is on record as “no binding”.

B3: TetraFab 2055 (antibody)
heavy: QVQLVQSGAEVKKPGASVKVSCKVSGFSFPSSGVDWVRQAPGQGLEWLGVTRGEGSTHYNQKFQGRVTITKDTSKSTVYMELSSLRSEDTAVYYCASGEWDEGFVYWGQGTLVTVSSASTKGPSVFPLAPSSKSTSGGTAALGCLVKDYFPEPVTVSWNSGALTSGVHTFPAVLQSSGLYSLSSVVTVPSSSLGTQTYICNVNHKPSNTKVDKKVEPKSCGGGGSQVQLVQSGAEVKKPGASVKVSCKVSGFSFPSSGVDWVRQAPGQGLEWLGVTRGEGSTHYNQKFQGRVTITKDTSKSTVYMELSSLRSEDTAVYYCASGEWDEGFVYWGQGTLVTVSSASTKGPSVFPLAPSSKSTSGGTAALGCLVKDYFPEPVTVSWNSGALTSGVHTFPAVLQSSGLYSLSSVVTVPSSSLGTQTYICNVNHKPSNTKVDKKVEPKSCDKTHTCPPCPAPEAAGAPSVFLFPPKPKDTLMISRTPEVTCVVVDVSHEDPEVKFNWYVDGVEVHNAKTKPREEQYNSTYRVVSVLTVLHQDWLNGKEYKCKVSNKALPAPIEKTISKAKGQPREPQVYTLPPSREEMTKNQVSLTCLVKGFYPSDIAVEWESNGQPENNYKTTPPVLDSDGSFFLYSKLTVDKSRWQQGNVFSCSVMHEALHNHYTQKSLSLSPGK
light: DIQLTQSPSFLSASVGDRVTITCKASQNVGTAVAWYQQKPGKAPKLLIYAASTLQSGVPSRFSGSGSGTEFTLTISSLQPEDFATYYCQQYSSYPLTFGGGTKVEIKRTVAAPSVFIFPPSDEQLKSGTASVVCLLNNFYPREAKVQWKVDNALQSGNSQESVTEQDSKDSTYSLSSTLTLSKADYEKHKVYACEVTHQGLSSPVTKSFNRGEC
notes: TetraFab
Regarding B3, the binding result is on record as “no binding”.

B4: TetraFab 2060 (antibody)
heavy: B3 heavy with R52W, E54V, W100H, R277W, E279V, W325H
light: B3 light
notes: TetraFab
B4: the binding result was “no binding”.

B5: TetraFab 2066 (antibody)
heavy: B3 heavy with R52K, E54Q, W100Q, R277K, E279Q, W325Q
light: B3 light
notes: TetraFab
For B5, the binding result was “no binding”.

B6: TetraFab 2075 (antibody)
heavy: B3 heavy with R52L, E54H, W100S, D101T, R277L, E279H, W325S, D326T
light: B3 light
notes: TetraFab
B6: the binding result is “no binding”.

B7: TetraFab 2079 (antibody)
heavy: B3 heavy with R52H, E54S, W100S, D101T, R277H, E279S, W325S, D326T
light: B3 light
notes: TetraFab
As to B7, the binding result is given as “no binding”.

B8: TetraFab 2063 (antibody)
heavy: B3 heavy with R52K, E54Q, W100S, D101T, R277K, E279Q, W325S, D326T
light: B3 light
notes: TetraFab
Turning to B8, the binding result is reported as “no binding”.

B9: TetraFab 2058 (antibody)
heavy: B3 heavy with R52H, E54S, R277H, E279S
light: B3 light
notes: TetraFab
On to B9, for which the binding result is reported as “no binding”.

B10: TetraFab 2147 (antibody)
heavy: B3 heavy with R52W, E54V, W100H, R277W, E279V, W325H
light: B3 light with Q89L, Y91K
notes: TetraFab
As for B10, the binding result is “no binding”.

B11: TetraFab 2176 (antibody)
heavy: B3 heavy with R52W, E54V, W100H, R277W, E279V, W325H
light: B3 light with Q89L
notes: TetraFab
As to B11, the binding result is given as “no binding”.

B12: TetraFab 2172 (antibody)
heavy: B3 heavy with R52F, G53Q, R277F, G278Q
light: B3 light with Q89L
notes: TetraFab
On to B12, for which the binding result is “no binding”.

B13: TetraFab 2154 (antibody)
heavy: B3 heavy with W100S, D101T, W325S, D326T
light: B3 light with Q89L, Y91K
notes: TetraFab
As for B13, the binding result is “no binding”.

B14: TetraFab 2191 (antibody)
heavy: B3 heavy with R52L, E54H, W100S, D101T, R277L, E279H, W325S, D326T
light: B3 light with Q89L
notes: TetraFab
For B14, the binding result is recorded as “no binding”.

B15: TetraFab 2173 (antibody)
heavy: B3 heavy with R52L, E54H, R277L, E279H
light: B3 light with Q89L
notes: TetraFab
Consider B15, for which the binding result was “no binding”.

B16: TetraFab 2153 (antibody)
heavy: B3 heavy with R52K, E54Q, W100Q, R277K, E279Q, W325Q
light: B3 light with Q89L, Y91K
notes: TetraFab
As to B16, the binding result was “no binding”.

B17: TetraFab 2076 (antibody)
heavy: B3 heavy with R52L, E54H, W100H, R277L, E279H, W325H
light: B3 light
notes: TetraFab
With B17, the binding result is “no binding”.

B18: TetraFab 2192 (antibody)
heavy: B3 heavy with R52L, E54H, W100H, R277L, E279H, W325H
light: B3 light with Q89L
notes: TetraFab
As for B18, the binding result was “no binding”.

B19: TetraFab 2142 (antibody)
heavy: B3 heavy
light: B3 light with Q89L, Y91K
notes: TetraFab
Consider B19, for which the binding result is given as “no binding”.

B20: TetraFab 2162 (antibody)
heavy: B3 heavy with R52L, E54H, W100S, D101T, R277L, E279H, W325S, D326T
light: B3 light with Q89L, Y91K
notes: TetraFab
Consider B20, for which the binding result was “no binding”.

B21: TetraFab 2156 (antibody)
heavy: B3 heavy with W100R, W325R
light: B3 light with Q89L, Y91K
notes: TetraFab
Regarding B21, the binding result is given as “no binding”.

B22: TetraFab 2163 (antibody)
heavy: B3 heavy with R52L, E54H, W100H, R277L, E279H, W325H
light: B3 light with Q89L, Y91K
notes: TetraFab
As for B22, the binding result is “no binding”.

B23: TetraFab 2143 (antibody)
heavy: B3 heavy with R52F, G53Q, R277F, G278Q
light: B3 light with Q89L, Y91K
notes: TetraFab
Regarding B23, the binding result was “no binding”.

B24: TetraFab 2057 (antibody)
heavy: B3 heavy with R52L, E54H, R277L, E279H
light: B3 light
notes: TetraFab
Take B24: the binding result was “no binding”.

B25: TetraFab 2179 (antibody)
heavy: B3 heavy with R52K, E54Q, W100S, D101T, R277K, E279Q, W325S, D326T
light: B3 light with Q89L
notes: TetraFab
Take B25: the binding result is “no binding”.

B26: TetraFab 2185 (antibody)
heavy: B3 heavy with W100R, W325R
light: B3 light with Q89L
notes: TetraFab
In the case of B26, the binding result was “no binding”.

B27: TetraFab 2150 (antibody)
heavy: B3 heavy with R52K, E54Q, W100S, D101T, R277K, E279Q, W325S, D326T
light: B3 light with Q89L, Y91K
notes: TetraFab
As for B27, the binding result is reported as “no binding”.

B28: TetraFab 2056 (antibody)
heavy: B3 heavy with R52F, G53Q, R277F, G278Q
light: B3 light
notes: TetraFab
Consider B28, for which the binding result is listed as “no binding”.

B29: TetraFab 2174 (antibody)
heavy: B3 heavy with R52H, E54S, R277H, E279S
light: B3 light with Q89L
notes: TetraFab
As for B29, the binding result is on record as “no binding”.

B30: TetraFab 2182 (antibody)
heavy: B3 heavy with R52K, E54Q, W100Q, R277K, E279Q, W325Q
light: B3 light with Q89L
notes: TetraFab
Take B30: the binding result is reported as “no binding”.

B31: TetraFab 2175 (antibody)
heavy: B3 heavy with R52W, E54V, W100S, D101T, R277W, E279V, W325S, D326T
light: B3 light with Q89L
notes: TetraFab
For B31, the binding result is “no binding”.

B32: TetraFab 2167 (antibody)
heavy: B3 heavy with R52H, E54S, W100H, R277H, E279S, W325H
light: B3 light with Q89L, Y91K
notes: TetraFab
As for B32, the binding result is listed as “no binding”.

B33: TetraFab 2059 (antibody)
heavy: B3 heavy with R52W, E54V, W100S, D101T, R277W, E279V, W325S, D326T
light: B3 light
notes: TetraFab
For B33, the binding result was “no binding”.

B34: TetraFab 2065 (antibody)
heavy: B3 heavy with R52K, E54Q, W100R, R277K, E279Q, W325R
light: B3 light
notes: TetraFab
Turning to B34, the binding result is given as “no binding”.

B35: TetraFab 2069 (antibody)
heavy: B3 heavy with W100R, W325R
light: B3 light
notes: TetraFab
Take B35: the binding result was “no binding”.
